Test results as given in PMC11812572, “NuMA is a mitotic adaptor protein that activates dynein and connects it to microtubule minus ends” (The Journal of Cell Biology, 2025).

Molecular target: the molecule itself
Experiment: mass photometry; TwoMP mass photometer; 5-20 nM protein in the respective TIRF microscopy assay buffer without methylcellulose; monomer to dimer

B1: AF546- or AF647-labelled SNAP-tagged human NuMA N-terminal fragment (first 705 aa), NuMA^N-term (domain or fragment, UniProt Q14980-1 1-705, looked up)
chain: MTLHATRGAALLSWVNSLHVADPVEAVLQLQDCSIFIKIIDRIHGTEEGQQILKQPVSERLDFVCSFLQKNRKHPSSPECLVSAQKVLEGSELELAKMTMLLLYHSTMSSKSPRDWEQFEYKIQAELAVILKFVLDHEDGLNLNEDLENFLQKAPVPSTCSSTFPEELSPPSHQAKREIRFLELQKVASSSSGNNFLSGSPASPMGDILQTPQFQMRRLKKQLADERSNRDELELELAENRKLLTEKDAQIAMMQQRIDRLALLNEKQAASPLEPKELEELRDKNESLTMRLHETLKQCQDLKTEKSQMDRKINQLSEENGDLSFKLREFASHLQQLQDALNELTEEHSKATQEWLEKQAQLEKELSAALQDKKCLEEKNEILQGKLSQLEEHLSQLQDNPPQEKGEVLGDVLQLETLKQEAATLAANNTQLQARVEMLETERGQQEAKLLAERGHFEEEKQQLSSLITDLQSSISNLSQAKEELEQASQAHGARLTAQVASLTSELTTLNATIQQQDQELAGLKQQAKEKQAQLAQTLQQQEQASQGLRHQVEQLSSSLKQKEQQLKEVAEKQEATRQDHAQQLATAAEEREASLRERDAALKQLEALEKEKAAKLEILQQQLQVANEARDSAQTSVTQAQREKAELSRKVEELQACVETARQEQHEAQAQVAELELQLRSEQQKATEKERVAQEKDQLQEQLQ
modifications: SNAP-tag labelled with SNAP-Surface Alexa Fluor 546 or SNAP-Surface Alexa Fluor 647
notes: nuclear mitotic apparatus protein (NuMA), human, isoform 1 (NM_006185), first 705 aa; two stop codons inserted after aa 705; codon-optimised for S. frugiperda; A PreScission site lies between the SNAP-tag and NuMA; Dimeric by mass photometry; the construct described is SNAP-tagged; also called AF546-NuMA^N-term; AF647-NuMA^N-term; source: Sf21 insect cells (baculovirus), purified (StrepTrap, TEV …)
B1 was tested, and the “stoichiometry N” value was 2.

B2: mScarlet-tagged human NuMA C-terminal fragment aa 1560-2115, mScarlet-NuMA^(C-term L) (domain or fragment, UniProt Q14980-1 1560-2115, looked up)
chain: TSDQASKVQQQKLKAVQAQGGESQQEAQRLQAQLNELQAQLSQKEQAAEHYKLQMEKAKTHYDAKKQQNQELQEQLRSLEQLQKENKELRAEAERLGHELQQAGLKTKEAEQTCRHLTAQVRSLEAQVAHADQQLRDLGKFQVATDALKSREPQAKPQLDLSIDSLDLSCEEGTPLSITSKLPRTQPDGTSVPGEPASPISQRLPPKVESLESLYFTPIPARSQAPLESSLDSLGDVFLDSGRKTRSARRRTTQIINITMAKKLDVEEPDSANSSFYSTRSAPASQASLRATSSTQSLARLGSPDYGNSALLSLPGYRPTTRSSARRSQAGVSSGAPPGRNSFYMGTCQDEPEQLDDWNRIAELQQRNRVCPPHLKTCYPLESRPSLSLGTITDEEMKTGDPQETLRRASMQPIQIAEGTGITTRQQRKRVSLEPHQGPGTPESKKATSCFPRPMTPRDRHEGRKQSTTEAQKKAAPASTKQADRRQSMAFSILNTPKKLGNSLLRRGASKKALSKASPNTRSGTRRSPRIATTTASAATAAAIGATPRAKGKAKHLE
notes: NuMA, human, isoform 1 (NM_006185), aa 1560-2115: part of the predicted coiled-coil and the entire C-terminal tail; Mixed population of monomers and dimers by mass photometry; source: Sf21 insect cells (baculovirus), purified (StrepTrap, TEV cleavage, SEC); not shown: Strep-tag II, N-terminal, cleaved; mScarlet, N-terminal, kept
For B2, the “stoichiometry N” value was 2.
